# Laboratory results reported in US7205275 (dated 2007).
# Primed or numbered codes have the meaning given here. Where no end group is shown, it is not given here. [ ]: non-standard residue; d: D form. Fc(4) = non-antigen-binding fragment of an antibody (from proteolytic digestion of a whole antibody); Fc = immunoglobulin Fc domain fused to the peptide (peptibody); Fc(7) = Fc domain, peptide fused N- or C-terminal to it
# T1: human Ang-2 (human, UniProt O15123)
# T1 chain: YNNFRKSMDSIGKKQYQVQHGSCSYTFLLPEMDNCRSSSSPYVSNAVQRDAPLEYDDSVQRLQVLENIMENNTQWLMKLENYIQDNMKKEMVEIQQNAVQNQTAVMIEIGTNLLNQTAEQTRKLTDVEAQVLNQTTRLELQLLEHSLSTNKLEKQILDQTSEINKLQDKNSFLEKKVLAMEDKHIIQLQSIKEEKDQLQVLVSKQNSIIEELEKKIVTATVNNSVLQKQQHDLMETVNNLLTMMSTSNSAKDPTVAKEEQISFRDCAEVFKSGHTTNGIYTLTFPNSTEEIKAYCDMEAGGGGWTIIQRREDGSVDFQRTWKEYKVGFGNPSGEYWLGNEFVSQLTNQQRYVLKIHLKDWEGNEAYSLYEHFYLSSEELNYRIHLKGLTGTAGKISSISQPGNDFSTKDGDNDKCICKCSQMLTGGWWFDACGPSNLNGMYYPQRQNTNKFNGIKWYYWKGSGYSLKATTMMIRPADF
# Target: T1, human Ang-2
# Assay: competition ELISA vs Tie-2
row,Binder,IC50 [nM]
1,M[Fc]GGGGGAQPMNQVECDWDPWTCEHMPRSLE (not fully specified; cysteine pairing not given here) [Con4-33 (C)],0.52
2,M[Fc(4)]GGGGGAQWPQTEGCQWDPWTCRLLHGWLE (not fully specified; cysteine pairing not given here) [Con4-6 (C)],> 1000
3,M[Fc(7)]GGGGGAQWVNEVVCEWDPWTCNHWDTPLE (not fully specified (bridges); cysteine pairing not given here) [Con4-18 (C)],4.8
4,M[Fc(7)]GGGGGAQTQLVSLCEWDPWTCRLLDGWLE (not fully specified (bridges); cysteine pairing not given here) [Con4-12 (C)],> 1000
5,M[Fc(7)]GGGGGAQVVQVGMCQWDPWTCKHMRLQLE (not fully specified (bridges); cysteine pairing not given here) [Con4-19 (C)],5.76
6,M[Fc(4)]GGGGGAQNVRQEKCEWDPWTCEHMPVRLE (not fully specified; cysteine pairing not given here) [Con4-41 (C)],0.26
7,M[Fc(7)]GGGGGAQTWPQDKCEWDPWTCEHMGSTLE (not fully specified (bridges); cysteine pairing not given here) [Con4-27 (C)],0.22
8,M[Fc]GGGGGAQKSTQDDCDWDPWTCEHMVGPLE (not fully specified; cysteine pairing not given here) [Con4-32 (C)],0.75
9,M[Fc]GGGGGAQWYEQDACEWDPWTCEHMAEVLE (not fully specified; cysteine pairing not given here) [Con4-4 (C)],0.12
10,M[Fc(7)]GGGGGAQQWSWPPCEWDPWTCQTVWPSLE (not fully specified (bridges); cysteine pairing not given here) [Con4-15 (C)],15
11,M[Fc(7)]GGGGGAQAWGQEGCDWDPWTCEHMLPMLE (not fully specified (bridges); cysteine pairing not given here) [Con4-28 (C)],0.3
12,M[Fc(4)]GGGGGAQATFARQCQWDPWTCALGGNWLE (not fully specified; cysteine pairing not given here) [Con4-5 (C)],> 1000
13,M[Fc(7)]GGGGGAQQGMKMFCEWDPWTCAHIVYRLE (not fully specified (bridges); cysteine pairing not given here) [Con4-11 (C)],9.7
14,M[Fc(4)]GGGGGAQAATQEECEWDPWTCEHMPRSLE (not fully specified (bridges); cysteine pairing not given here) [Con4-C5 (C)],0.16
15,M[Fc]GGGGGAQVPRQKDCEWDPWTCEHMYVGLE (not fully specified; cysteine pairing not given here) [Con4-35 (C)],0.18
16,M[Fc(4)]GGGGGAQLWQLAVCQWDPQTCDHMGALLE (not fully specified; cysteine pairing not given here) [Con4-7 (C)],> 1000
17,M[Fc(7)]GGGGGAQVLGGQGCQWDPWTCSHLEDGLE (not fully specified (bridges); cysteine pairing not given here) [Con4-1 (C)],2.47
18,M[Fc(7)]GGGGGAQAATQEECEWDPWTCRLLQGWLE (not fully specified (bridges); cysteine pairing not given here) [AC5-Con4 (C)],> 1000
19,M[Fc(4)]GGGGGAQGTSPSFCQWDPWTCSHMVQGLE (not fully specified; cysteine pairing not given here) [Con4-9 (C)],20.1

row,Binder,IC50 [nM]
1,M[Fc(7)]GGGGGAQRTTQEKCEWDPWTCEHMESQLE (not fully specified (bridges); cysteine pairing not given here) [Con4-29 (C)],0.41
2,M[Fc(7)]GGGGGAQPDTRQGCQWDPWTCRLYGMWLE (not fully specified (bridges); cysteine pairing not given here) [Con4-24 (C)],> 1000
3,M[Fc(4)]GGGGGAQTTIGSMCQWDPWTCEHMQGGLE (not fully specified (bridges); cysteine pairing not given here) [Con4-C4 (C)],9.8
4,M[Fc(4)]GGGGGAQSTIGDMCEWDPWTCAHMQVDLE (not fully specified; cysteine pairing not given here) [Con4-8 (C)],1.2
5,M[Fc(7)]GGGGGAQDKILEECEWDPWTCRLLQGWLE (not fully specified (bridges); cysteine pairing not given here) [AC3-Con4 (C)],> 1000
6,M[Fc]GGGGGAQVKTQEHCDWDPWTCEHMREWLE (not fully specified; cysteine pairing not given here) [Con4-34 (C)],0.28
7,M[Fc(7)]GGGGGAQVWRSQVCQWDPWTCNLGGDWLE (not fully specified (bridges); cysteine pairing not given here) [Con4-22 (C)],150
8,M[Fc(4)]GGGGGAQWAAQEECEWDPWTCEHMGRMLE (not fully specified; cysteine pairing not given here) [Con4-49 (C)],0.19
9,M[Fc(7)]GGGGGAQQVIGRPCEWDPWTCEHLEGLLE (not fully specified (bridges); cysteine pairing not given here) [Con4-20 (C)],0.48
10,M[Fc(4)]GGGGGAQTTIGSMCQWDPWTCAHMQGGLE (not fully specified (bridges); cysteine pairing not given here) [Con4-C2 (C)],3.75
11,M[Fc]GGGGGAQKSGQVECNWDPWTCEHMPRNLE (not fully specified; cysteine pairing not given here) [Con4-36 (C)],0.28
12,M[Fc(7)]GGGGGAQDKILEECQWDPWTCQFFYGALE (not fully specified (bridges); cysteine pairing not given here) [Con4-3 (C)],282
13,M[Fc(4)]GGGGGAQHGQNMECEWDPWTCEHMFRYLE (not fully specified; cysteine pairing not given here) [Con4-50 (C)],0.38
14,M[Fc]GGGGGAQPRLQEECVWDPWTCEHMPLRLE (not fully specified; cysteine pairing not given here) [Con4-38 (C)],0.4
15,M[Fc(7)]GGGGGAQTWPQDKCEWDPWTCRLLQGWLE (not fully specified (bridges); cysteine pairing not given here) [AC1-Con4 (C)],> 1000
16,M[Fc(4)]GGGGGAQGHSQEECGWDPWTCEHMGTSLE (not fully specified; cysteine pairing not given here) [Con4-48 (C)],0.26
17,M[Fc(7)]GGGGGAQGPAQEECEWDPWTCEPLPLMLE (not fully specified (bridges); cysteine pairing not given here) [Con4-30 (C)],> 1000
18,M[Fc(7)]GGGGGAQFGWSHGCEWDPWTCRLLQGWLE (not fully specified (bridges); cysteine pairing not given here) [Con4-2 (C)],> 1000
